For three molecules, Kd results are on record in US20240043506A1 (GARVAN INSTITUTE OF MEDICAL RESEARCH, published 2024).

Usually Kd stands for a measure of binding affinity in units of concentration. Read a low Kd as higher affinity.

For experiment [1], the target named is T1, SARS-CoV-2 S protein RBD (residues 319-541 of the S protein), soluble, with C-terminal Avitag and His tag (SARS-CoV-2, UniProt P0DTC2 319-541). The experiment is described as follows: biolayer interferometry (BLItz), […]. In general terms: Biolayer interferometry detects binding as a change in optical thickness at a sensor tip.
Experiment [2] addresses T1, SARS-CoV-2 S protein RBD (residues …). Description: biolayer interferometry (BLItz), […], global fit.

Where a chain is given by its changes, count along the chain named. In names and notes the source's numbering stands.

B1: C12K-D12 (antibody, V domains shown)
VH: EVQLLESGGGLVQPGGSLRLSCAASGFRISDEDMGWVRQAPGKGLEWVSYIDNAGASTYYADSVKGRFTISRDNSKNTLYLQMNSLRAEDTAVYYCAKSLGPNPEFDYWGQGTLVTVSS
VL: DIQMTQSPSSLSASVGDRVTITCRASQSISSYLNWYQQKPGKAPKLLIYYASNLQSGVPSRFSGSGSGTDFTLTISSLQPEDFATYYCQQGLGMPITFGQGTKVEIK
The molecule B1 came in with a Kd in experiment [1] of 1 nM.

B2: G1K-C4 (antibody, V domains shown)
VH: EVQLLESGGGLVQPGGSLRLSCAASGFRFDYEDMGWVRQAPGKGLEWVSSIDSHGASTYYADSVKGRFTISRDNSKNTLYLQMNSLRAEDTAVYYCAKYSHSVSYGPFDYWGQGTLVTVSS
VL: B1 VL with S28Y, S31Y, Y32D, Y50S, N53S, G91T, L92N, G93T, M94Y, I96Q
Consider B2, for which the affinity in experiment [2], expressed as Kd, was 59 nM.

B3: C12K-G10 (antibody, V domains shown)
VH: B1 VH with G101N, P102S, N103L, P104G, E105V
VL: B1 VL with S30Y, S31D, N53A
Consider B3, for which the Kd in experiment [1] is 0.788 nM.
